Publication PMC4706430, “In Vitro Mode of Action and Anti-thrombotic Activity of Boophilin, a Multifunctional Kunitz Protease Inhibitor from the Midgut of a Tick Vector of Babesiosis, Rhipicephalus microplus” (PLoS Neglected Tropical Diseases, 2016)

Experiments:
FXIa [1] = target: T1, FXIa (human, UniProt P03951 19-387; P03951 388-625); assay: SPR; Biacore T100; FXIa immobilised on CM5 by amine coupling (1280.4 RU); Boophilin (31.25-500 nM) injected 120 s, dissociation 600 s, 30 μL/minute, 25°C, HBS-P pH 7.4; global 1:1 Langmuir fit; details: both partners purified
T1 construct: coagulation factor XIa heavy chain; coagulation factor XIa light (catalytic) chain; for the Enzyme Research Laboratories FXIa no species is printed; also called Factor XIa; source: bought: Enzyme Research Laboratories (reagents list); bought: Molecular Innovations (protease screen); copies: 2 + 2

FXIa [2] = target: T1, FXIa; assay: enzyme inhibition kinetics (chromogenic substrate hydrolysis); apparent Ki from Vs/Vo against Boophilin concentration (0-640 nM); FXIa (10 nM) pre-incubated 1 hour with Boophilin, then S2366 (250 μM); TBS-BSA pH 7.4; details: both partners purified
α-thrombin [3] = target: T2, α-thrombin (human, UniProt P00734 364-622); assay: enzyme inhibition kinetics (chromogenic substrate hydrolysis); Lineweaver-Burk plots and re-plot of the slope against Boophilin concentration; Boophilin (0-1280 nM) with S2238 or S2366 (125-750 μM), then thrombin (0.2 nM) or FXIa (0.5 nM); TBS-BSA pH 7.4; details: both partners purified
FXIa [4] = target: T1, FXIa; assay: as above; details: both partners purified
α-thrombin [5] = target: T2, α-thrombin; assay: cell-based or functional assay
kallikrein = kallikrein (human, UniProt P03952 20-638); assay: cell-based or functional assay
α-thrombin [6] = target: T2, α-thrombin; assay: SPR; Biacore T100; Boophilin immobilised on CM5 by amine coupling (301.4 RU); thrombin (15.625-500 nM) injected 90 s, dissociation 180 s, 30 μL/minute, 25°C, HBS-P pH 7.4; global 1:1 Langmuir fit; α-thrombin, γ-thrombin and PPACK-thrombin also tested at 1 μM as analytes; details: both partners purified

T1 sequence (P03951 19-387, chain 1 of 2): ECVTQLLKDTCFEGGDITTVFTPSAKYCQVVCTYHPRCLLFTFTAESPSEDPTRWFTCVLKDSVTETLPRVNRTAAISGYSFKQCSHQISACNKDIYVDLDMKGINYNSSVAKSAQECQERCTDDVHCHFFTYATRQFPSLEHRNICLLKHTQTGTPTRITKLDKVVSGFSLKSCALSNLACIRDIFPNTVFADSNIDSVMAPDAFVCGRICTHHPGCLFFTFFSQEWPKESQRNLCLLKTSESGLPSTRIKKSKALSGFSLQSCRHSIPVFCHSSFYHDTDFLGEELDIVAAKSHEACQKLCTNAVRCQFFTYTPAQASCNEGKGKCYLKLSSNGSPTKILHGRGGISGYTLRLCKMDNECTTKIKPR
T1 sequence (P03951 388-625, chain 2 of 2): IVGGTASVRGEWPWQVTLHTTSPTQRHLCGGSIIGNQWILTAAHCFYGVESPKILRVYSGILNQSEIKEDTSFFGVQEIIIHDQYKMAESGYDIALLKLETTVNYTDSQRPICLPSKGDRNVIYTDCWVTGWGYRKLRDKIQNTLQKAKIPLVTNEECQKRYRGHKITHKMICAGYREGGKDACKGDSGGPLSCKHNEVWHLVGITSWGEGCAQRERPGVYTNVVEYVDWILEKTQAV
Chain of kallikrein (P03952 20-638): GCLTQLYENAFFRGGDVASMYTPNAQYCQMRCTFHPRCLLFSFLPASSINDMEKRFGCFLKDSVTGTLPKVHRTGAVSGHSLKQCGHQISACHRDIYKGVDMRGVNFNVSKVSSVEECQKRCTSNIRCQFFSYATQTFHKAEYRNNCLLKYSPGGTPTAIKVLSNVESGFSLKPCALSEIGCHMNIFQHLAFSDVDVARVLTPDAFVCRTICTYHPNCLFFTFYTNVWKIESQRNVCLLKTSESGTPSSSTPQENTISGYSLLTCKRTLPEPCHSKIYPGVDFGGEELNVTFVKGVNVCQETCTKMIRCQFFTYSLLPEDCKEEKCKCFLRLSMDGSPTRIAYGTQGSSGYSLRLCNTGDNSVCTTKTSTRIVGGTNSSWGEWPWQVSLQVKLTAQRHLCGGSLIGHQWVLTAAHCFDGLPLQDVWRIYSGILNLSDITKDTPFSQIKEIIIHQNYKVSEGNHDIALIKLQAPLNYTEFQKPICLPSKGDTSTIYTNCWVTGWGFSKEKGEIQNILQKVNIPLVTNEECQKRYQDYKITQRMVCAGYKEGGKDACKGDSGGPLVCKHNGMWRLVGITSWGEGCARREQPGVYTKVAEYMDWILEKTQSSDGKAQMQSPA

B1: Boophilin (natural protein)
chain: QRNGFCRLPADEGICKALIPRFYFNTETGKCTMFSYGGCGGNENNFETIEDCQKACGAPERVSDFEGADFKTGCEPAADSGSCAGQLERWFYNVRSGECETFVYGGCGGNDNNYESEEECELVCKNM
modifications: N-terminus blocked (Edman degradation)
With B1 the Kd (FXIa [1]) was ~125 nM, the Ki (FXIa [2]) was ~82 nM and the Ki (α-thrombin [3]) was 101 nM. For the same binder, the Ki (FXIa [4]) was 115 nM, the “IC50 of residual amidolytic activity (S-2238) of clot-bound thrombin (Fig 2H)” value (α-thrombin [5]) was ~1000 nM and the “IC50 of thrombin-mediated fibrin formation (thrombin 200 nM, fibrinogen 2 mg/mL; absorbance at 600 nm) (Fig 2G)” value (α-thrombin [5]) was ~1000 nM. For the same binder, the “IC50 of the amidolytic activity of kallikrein (2 nM) on S2302, Boophilin 0-3200 nM, Vs/Vo (Fig 3G)” value (kallikrein) was 919000 nM, the Kd (α-thrombin [6]) was 116 nM and the koff (α-thrombin [6]) was 0.36 s⁻¹. It also gave a kon (α-thrombin [6]) of 3e+06 M⁻¹ s⁻¹.
